# Test results from paper PMC4335047, “Interaction between the tRNA-Binding and C-Terminal Domains of Yeast Gcn2 Regulates Kinase Activity In Vivo” (PLoS Genetics, 2015).
# T1: GST-HisRS (Gcn2 residues 970–1497), wild type (S. cerevisiae, UniProt P15442 970-1497)
# T1 construct: Gcn2 of S. cerevisiae, HisRS-related domain, residues 970-1497; also called WT GST-HisRS; GST-HisRS (970–1497); not shown: GST, N-terminal, kept
# T1 sequence (looked up): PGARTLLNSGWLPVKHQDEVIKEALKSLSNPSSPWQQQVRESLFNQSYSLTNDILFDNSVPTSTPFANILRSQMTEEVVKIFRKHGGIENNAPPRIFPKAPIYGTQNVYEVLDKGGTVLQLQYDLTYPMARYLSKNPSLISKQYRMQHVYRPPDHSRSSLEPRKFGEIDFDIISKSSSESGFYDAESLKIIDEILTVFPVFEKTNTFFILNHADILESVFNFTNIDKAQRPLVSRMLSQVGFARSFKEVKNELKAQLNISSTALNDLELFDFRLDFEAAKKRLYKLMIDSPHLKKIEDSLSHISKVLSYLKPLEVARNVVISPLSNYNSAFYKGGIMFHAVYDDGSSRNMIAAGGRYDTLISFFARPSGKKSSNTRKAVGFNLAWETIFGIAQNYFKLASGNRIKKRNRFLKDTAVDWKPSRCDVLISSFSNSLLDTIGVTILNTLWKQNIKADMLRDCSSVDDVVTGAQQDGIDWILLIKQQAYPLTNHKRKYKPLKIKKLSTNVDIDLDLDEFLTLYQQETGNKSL
# T2: GST-CTD (Gcn2 residues 1498–1659) (S. cerevisiae, UniProt P15442 1498-1659)
# T2 construct: Gcn2 of S. cerevisiae, C-terminal domain (CTD), residues 1498-1659; a pGEX vector with the tac promoter points to E. coli; also called GST-GCN2(1498–1659); source: purified GST fusion (P tac, pGEX-5x-1); not shown: GST, N-terminal, kept
# T2 sequence (looked up): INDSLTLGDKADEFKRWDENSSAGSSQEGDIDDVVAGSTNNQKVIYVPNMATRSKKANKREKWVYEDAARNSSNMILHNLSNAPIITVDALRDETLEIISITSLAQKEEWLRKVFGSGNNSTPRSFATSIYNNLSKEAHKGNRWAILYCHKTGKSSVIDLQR
# Experiments:
# Test in all cases: pull-down; purified GST fusions (5 μg) immobilised on glutathione-Sepharose 4B beads; in vitro translated [35S]-HisRS(970–1497), partially purified by ammonium sulfate precipitation; buffer A, 4°C, 2 h; without or with increasing tRNA^Phe or a model mRNA; fluorography
# Settings in all cases: one partner purified
# [1] = molecular target: T1, GST-HisRS (Gcn2 residues 970–1497), …
# [2] = molecular target: T2, GST-CTD (Gcn2 residues 1498–1659)
# [3] = molecular target: T3, GST-KD (Gcn2 residues 568–998) (S. cerevisiae, UniProt P15442 568-998)
# T3 construct: Gcn2 of S. cerevisiae, kinase domain (KD), residues 568-998; a pGEX vector with the tac promoter points to E. coli; also called GST-GCN2(568–998); source: purified GST fusion (P tac, pGEX-5x-1); not shown: GST, N-terminal, kept
# T3 sequence (P15442 568-998): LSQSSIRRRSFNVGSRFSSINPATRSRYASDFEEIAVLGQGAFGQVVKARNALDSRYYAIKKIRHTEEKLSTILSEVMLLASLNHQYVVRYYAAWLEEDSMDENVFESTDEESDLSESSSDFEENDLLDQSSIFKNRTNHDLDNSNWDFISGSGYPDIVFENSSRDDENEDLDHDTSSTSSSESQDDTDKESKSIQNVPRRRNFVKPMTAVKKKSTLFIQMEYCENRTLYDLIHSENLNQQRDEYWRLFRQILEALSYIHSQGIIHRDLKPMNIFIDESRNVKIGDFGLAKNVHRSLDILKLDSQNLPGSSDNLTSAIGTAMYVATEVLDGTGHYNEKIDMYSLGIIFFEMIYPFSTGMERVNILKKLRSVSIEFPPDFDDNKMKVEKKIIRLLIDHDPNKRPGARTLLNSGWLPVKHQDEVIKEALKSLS
binder,measurement,setting,value
"[35S]-HisRS(970–1497) segment of Gcn2 (domain or fragment, S. cerevisiae, UniProt P15442 970-1497, looked up, [35S]-methionine labeled, Gcn2 of S. cerevisiae, HisRS-related domain, residues 970-1497; P T7-GCN2 (970–1497) in pGEM-3Z; also called [^35S]-methionine labeled HisRS fragment; [^35S]-HisRS domain fragments; source: in vitro translated (TNT T7 Coupled Reticulocyte Lysate System), partially purified by ammonium sulfate precipitation) PGARTLLNSGWLPVKHQDEVIKEALKSLSNPSSPWQQQVRESLFNQSYSLTNDILFDNSVPTSTPFANILRSQMTEEVVKIFRKHGGIENNAPPRIFPKAPIYGTQNVYEVLDKGGTVLQLQYDLTYPMARYLSKNPSLISKQYRMQHVYRPPDHSRSSLEPRKFGEIDFDIISKSSSESGFYDAESLKIIDEILTVFPVFEKTNTFFILNHADILESVFNFTNIDKAQRPLVSRMLSQVGFARSFKEVKNELKAQLNISSTALNDLELFDFRLDFEAAKKRLYKLMIDSPHLKKIEDSLSHISKVLSYLKPLEVARNVVISPLSNYNSAFYKGGIMFHAVYDDGSSRNMIAAGGRYDTLISFFARPSGKKSSNTRKAVGFNLAWETIFGIAQNYFKLASGNRIKKRNRFLKDTAVDWKPSRCDVLISSFSNSLLDTIGVTILNTLWKQNIKADMLRDCSSVDDVVTGAQQDGIDWILLIKQQAYPLTNHKRKYKPLKIKKLSTNVDIDLDLDEFLTLYQQETGNKSL",fold reduction of the pull-down on addition of tRNA^Phe,[1],~2.1 fold
same,fold reduction of the pull-down on addition of tRNA^Phe,[2],~5.4 fold
same,fold reduction of the pull-down on addition of tRNA^Phe,[3],~1.8 fold
